“Also recorded” adds a separate entry of the source.
B1: G146S: Cx47 missense mutant G146S (436G>A), intracellular loop, construct expressed in HeLa cells or LECs (protein, listed as Homo sapiens)
chain: MSWSFLTRLLEEIHNHSTFVGKVWLTVLVVFRIVLTAVGGEAIYSDEQAKFTCNTRQPGCDNVCYDAFAPLSHVRFWVFQIVVISTPSVMYLGYAVHRLARASEQERRRALRRRPGPRRAPRAHLPPPHAGWPEPADLGEEEPMLSLGEEEEEEETGAAEGAGEEAEEAGAEEACTKAVGADGKAAGTPGPTGQHDGRRRIQREGLMRVYVAQLVARAAFEVAFLVGQYLLYGFEVRPFFPCSRQPCPHVVDCFVSRPTEKTVFLLVMYVVSCLCLLLNLCEMAHLGLGSAQDAVRGRRGPPASAPAPAPRPPPCAFPAAAAGLACPPDYSLVVRAAERARAHDQNLANLALQALRDGAAAGDRDRDSSPCVGLPAASRGPPRAGAPASRTGSATSAGTVGEQGRPGTHERPGAKPRAGSEKGSASSRDGKTTVWI
B2: WT-hCx47: human wild type Cx47 construct in bicistronic pIRES2-EGFP vector, expressed in HeLa cells or LECs (protein, UniProt Q5T442 1-439, looked up)
Gap junction gamma-2 protein: MTNMSWSFLTRLLEEIHNHSTFVGKVWLTVLVVFRIVLTAVGGEAIYSDEQAKFTCNTRQPGCDNVCYDAFAPLSHVRFWVFQIVVISTPSVMYLGYAVHRLARASEQERRRALRRRPGPRRAPRAHLPPPHAGWPEPADLGEEEPMLGLGEEEEEEETGAAEGAGEEAEEAGAEEACTKAVGADGKAAGTPGPTGQHDGRRRIQREGLMRVYVAQLVARAAFEVAFLVGQYLLYGFEVRPFFPCSRQPCPHVVDCFVSRPTEKTVFLLVMYVVSCLCLLLNLCEMAHLGLGSAQDAVRGRRGPPASAPAPAPRPPPCAFPAAAAGLACPPDYSLVVRAAERARAHDQNLANLALQALRDGAAAGDRDRDSSPCVGLPAASRGPPRAGAPASRTGSATSAGTVGEQGRPGTHERPGAKPRAGSEKGSASSRDGKTTVWI

What was measured:
[1] = tested on: HeLa cells; assay: Wound assay (proliferation/migration) in confluent transfected HeLa cells; format: cell-based, human; conditions: for wound assay: fraction of original wound in HeLa cell monolayer after 24 hrs, mean ± SEM
Method: The wound assay, a measure of proliferation/migration, was performed using differential interference contrast time lapse of over 24 hrs using confluent transfected HeLa cells. Analysis was done using TScratch (Geback T, et al. TScratch: a novel and simple software tool for automated analysis of monolayer wound healing assays. Biotechniques 2009; 46:265-74), mean±SEM of at least 10 positions along wound; the scrape width was normalized to the first image for each position. In all cases a two tailed student's T test was applied with p<0.05 considered significant.

[2] = tested on: HeLa cells; assay: Cx47 gap junction plaque formation by immunofluorescent confocal microscopy in transfected HeLa cells; format: cell-based, human; conditions: near confluent transfected HeLa cells
Method: Human neonatal foreskin was collected anonymously as discarded tissue according to an IRB protocol. Samples were collected immediately after harvest in DMEM, then fixed in 2% paraformaldehyde for 2 hrs, then stored in 30% sucrose in 1×PBS overnight for cryosectioning, and sectioned in 6 μm slices at −30° C. Transfected (stable and transient) and untransfected HeLa cells were grown to near confluence in coverslip bottom dishes. All cells were rinsed with PBS and fixed with 2% paraformaldehyde. Subsequently, tissue and HeLa cells were processed similarly: following permeabilization with 0.1% Triton X, cells were blocked with 2% BSA. A human Cx47 antibody (ab) was obtained from the S. Scherer laboratory: polyclonal rabbit against amino acids 344-399 in the cytoplasmic C-terminal tail; we used human CNS tissue and positive oligodendrocyte staining as a positive control and primary antibody delete and rabbit IgG as negative controls (data not shown). Cx47 ab was diluted in 0.5% BSA in a 1:200 ratio, applied to cells and incubated at RT for one hour. Mouse monoclonal Proxl (Chemicon) was used as a lymphatic marker for the foreskin samples. Cells were incubated with the secondary abs (Donkey Anti-Rabbit Cy5 and Donkey Anti-Mouse Cy3; Invitrogen) for one hour at RT and washed; Draq5 was used as a nuclear marker. HeLa images were acquired with an inverted Olympus Fluoview 1000 Confocal Microscope 100× oil, 1.4 NA objective. Foreskin images were acquired on a Zeiss Meta LSM 510 inverted confocal microscope with 40× oil, 1.3 N.A. objective. LECs (primary human microvascular adult dermal lymphatics; Lonza) were grown in fibronectin coated coverslip bottom MatTeks dishes in EGM™-2 MV—Microvascular Endothelial Cell Medium-2 (Lonza Inc.) to approximately 80% confluence, and prepared similarly but a commercially available (AbCam) Cx47 ab, polyclonal rabbit against amino acids 41-70 in the human sequence was used along with Drag 5 nuclear marker and phalloidin to mark f-actin.
Immunofluorescence microscopy determines the presence or absence of Cx47 gap junction plaques when the constructs are transiently expressed in HeLa cells. Cx plaques reflect a physiologic accumulation of Cx channels in the cell membrane between cells (tens to thousands of channels); thus plaques are indicative of normal trafficking and gap junction formation at the cell membrane.
Immunofluorescence microscopy determines the presence or absence of Cx47 gap junction plaques when the constructs are transiently expressed in HeLa cells. A human Cx47 antibody was obtained: polyclonal rabbit against amino acids 344-399 in the cytoplasmic C-terminal tail (Orthmann-Murphy J L, et al. Mol Cell Neurosci 2007; 34:629-41); we used human CNS tissue and positive oligodendrocyte staining as a positive control and primary antibody delete as a negative control (data not shown). Cultured HeLa cells were routinely fixed and stained with the primary antibodies against Cx47, along with a nuclear marker, and transfected cells were identified by their EGFP signal. Plaques were imaged using an Olympus Fluoview 1000 confocal microscope, 100× oil objective.

[3] = tested on: Adult human dermal lymphatic microvascular endothelial cells; assay: Lucifer yellow microinjection dye spread in lymphatic endothelial cells expressing mutant constructs; format: cell-based; conditions: Dye spread to tiers of LECs after 2 min; Lucifer yellow microinjection; mean ± SEM
Method: Adult human dermal lymphatic microvascular endothelial cells were cultured in EGM™-2 MV (both from Lonza). Cells were electroporated with 2 μg cDNA of the EGFP tagged mutant constructs and then selected with G418 as described above. Cells were microinjected using a combination (1:4 ratio) of 70 kd Texas Red dextran (Invitrogen) to mark injected cell for reference and Lucifer yellow, a known gap junction permeable dye (m.w. 443, −2 charge), to assess change in extent of spread (Abbaci M, et al. Advantages and limitations of commonly used methods to assay the molecular permeability of gap junctional intercellular communication. Biotechniques 2008; 45:33-52, 6-62). All cells were injected using constant conditions and cells were scored for dye spread in tiers from reference cell, using constant exposure time and thresholding, and were imaged using a Nikon TE2000 with temperature controlled motorized stage and Qlmaging Retiga CCD camera. Images were obtained using differential interference contrast (DIC) and standard filters for EGFP (identify expression of mutation), DAPI (for Lucifer yellow) and dsRed (for dextran) preinjection, immediately post-injection and 2 min after injection. Results were calculated as mean SEM and statistical significance was determined in comparison to WT-hCx47-EGFP expressing cells using a Mann-Whitney Test.

[4] = tested on: HeLa cells; assay: Calcein AM scrape loading and dye transfer in stably transfected HeLa cells; format: cell-based, human; conditions: for dye transfer: ratio, rate normalized to untransfected HeLa cells, Calcein AM scrape loading, 10 min, stably transfected HeLa, mean ± SEM
Method: A confluent monolayer of HeLa cells (untransfected and stably transfected, as described above) was grown in DMEM with 10% FBS in coverslip bottom plates (MatTek) and placed in a temperature controlled microincubator (Zeiss). A 10×, 0.4 NA objective was used to collect DIC and GFP images every 5 seconds for 10 minutes without changing media. A pipette loaded with 1 μl Calcein AM (Invitrogen), a gap junction permissive dye with molecular weight 662, −4 charge when intracellular and fluorescent, was used to create a scrape across the monolayer. At least 5 replicate dishes were analyzed on the same day, and WT hCx47 expressing HeLas were grown and assayed as a concurrent control; assays were performed on at least 2 different batches of HeLa cells on different days. Quantitation of the rate of spread was calculated using MetaMorph, by obtaining integrated intensity at the 10th time point, within the first minute of imaging, and then at the endpoint at 10 min, and subtracting the initial intensity from that at the endpoint. Results are reported as mean and SEM, and tested for significance (p<0.05) using an unpaired Student's t-test.
In these mutants, Cx47 appears to concentrate in the ER. Unlike electrophysiologic measurements, dye transfer assays are used to assess GJIC of relatively large molecules. We also found significant differences in GJIC in HeLa cells overexpressing Cx47 lymphedema associated mutations by assessing rates of dye transfer in a conventional scrape assay using stably transfected HeLa cells normalized to rates in untransfected HeLa cells (FIG. 7D; Table 3). […] It is not surprising that the mutants show some differences in GJIC between the electrophysiologic and dye transfer assays given that they are designed to measure different kinds of transport and that Cx channel permeability is now believed to be governed by factors including molecular shape, charge and size, in addition to channel conformation and composition.

Molecule	wound closure compared to WT-hCx47-EGFP transfected cells (in words) ([1]; HeLa cells, cell scratch assay)	wound assay [1]	Cx47 plaque formation (in words) [2]	LEC spread [3] [tiers]	dye transfer [4]	Calcein AM dye transfer compared to WT-hCx47 transfected HeLa cells (in words) ([4]; stably transfected HeLa cells, scrape assay)	Cx47 plaque formation (in words) ([2]; listed as WT-hCx47-EGFP)
B1	faster wound closure; also recorded: more rapid closure	0.62	Cx47 intercellular plaques	2.0	1.05	less	
B2		0.72	Presence	1.4	1.80		Cx47 intercellular plaques

From patent US9260754B2, “Connexin mutation detection for lymphatic variation and disease” (University of Pittsburgh—Of the Commonwealth System of …, priority 2010, dated 2016)
